# Source: article PMC7337405, “A secreted LysM effector protects fungal hyphae through chitin-dependent homodimer polymerization” (PLoS Pathogens, 2020)
# Tests used:
# [1] = molecular target: (GlcNAc)6; test: ITC
# [2] = molecular target: T1, Mg1LysM (Zymoseptoria tritici, UniProt F9XHX3); test: X-ray crystal structure of the complex ([…] Å); format: binding; settings: P. pastoris-produced protein; ligand co-purified from host cell wall; site between two protomers of neighbouring homodimers
# T1 construct: mature single-LysM effector, signal peptide absent; ITC: E. coli Origami pET-SUMO, His-SUMO cut off by ULP1; crystal: P. pastoris GS115, His-FLAG tag; ligand-independent homodimer; chitin site formed by two protomers of neighbouring homodimers
Molecule,other: stoichiometry N [1],X-ray crystal structure of the complex (2.41 Å) [2]
"Mg1LysM (Zymoseptoria tritici LysM effector), wild type, produced in E. coli (from UniProt A0A1X7S147) T28R",0.956,–
"Mg1LysM (Zymoseptoria tritici LysM effector), wild type, produced in E. coli (from UniProt A0A1X7S147) K31A",0.97,–
"Mg1LysM (Zymoseptoria tritici LysM effector), wild type, produced in E. coli (from UniProt A0A1X7S147) D54A",0.902,–
CC(=O)N[C@H]1[C@H](O[C@H]2[C@H](O)[C@@H](NC(C)=O)C(O)O[C@@H]2CO)O[C@H](CO)[C@@H](O[C@@H]2O[C@H](CO)[C@@H](O)[C@H](O)[C@H]2NC(C)=O)[C@@H]1O (stereo partly shown) [chitin trimer],–,well-defined electron density for a single chitin trimer bound to one monomer of the a.u.
